Target: Tpp49Aa1 pesticidal protein from Lysinibacillus sphaericus (Lysinibacillus sphaericus)
Experiment: crystal structure

Substance: Tpp49Aa1 pesticidal protein from Lysinibacillus sphaericus (natural protein)
- stoichiometry N: 2
